In the DeepSol protein solubility set:

test: soluble on expression in E. coli; label from the status in PepcDB or PDB records

Sequence | soluble on expression in E. coli
METFDVVVIGAGAAGMMCAIEAGKRGRSVLVIDHAKAPGEKIRISGGGRCNFTNTGASIHNFLSANPKFALSALRRYRPRDFIALVERYGIAYHEKTLGQLFCDGSAKQIITMLLTEMKAAGVTLRLETSVESVAKAVSGFEVSLSSGKVACASLVVASGGKSIPKMGATGLGYDIAKQFGLNIIETRPALVPLTFEAGMLARLTPLSGVALDAVVGHGKTKFQEGMLFTHRGLSGPSILQISSYWREGDEIRVDMAPGVDALAALKTARTATPRQAVATVLATLLPKRVAQVIAEEEAPDKGNIADCSDKVLGRLASAVNAWTFKPVGSEGYRTAEVTLGGVDTEALDSRTLEAKAVPGLFFIGEVVDVTGWLGGYNFQWAWASGWSAGQSV | soluble
MSLEDYILKVEELNYNYSDGTHALKGINMNIKRGEVTAILGGNGVGKSTLFQNFNGILKPSSGRILFDNKPIDYSRKGIMKLRESIGIVFQDPDNQLFSASVYQDVSFGAVNMKLPEDEIRKRVDNALKRTGIEHLKDKPTHCLSFGQKKRVAIAGVLVMEPKVLILDEPTAGLDPMGVSEIMKLLVEMQKELGITIIIATHDIDIVPLYCDNVFVMKEGRVILQGNPKEVFAEKEVIRKVNLRLPRIGHLMEILKEKDGFVFDELDLTIGQARKTINSWKNKIFNEGHHHHHH | soluble
SLRITRIRLYKTDLPYVDGSYGWGAGNAITVARASVVVIDTDAGLQGCGEFTPCGENYMIAHSEGVDAFARLAAPQLLGQDPRQVARMERLMDHLVQGHGYAKAPFDAAFWDILGQATGQPVWMLLGGKLCDGAPMYRVAPQRSEAETRAELARHRAAGYRQFQIKVGADWQSDIDRIRACLPLLEPGEKAMADANQGWRVDNAIRLARATRDLDYILEQPCRSYEECQQVRRVADQPMKLDECVTGLHMAQRIVADRGAEICCLKISNLGGLSKARRTRDFLIDNRMPVVAEDSWGGEIASAAVAHFAASTPEEFLINSTDLMNYNTRSTGLGGPTVHQGRLYASDTPGLGVTPDFNSLGAPVADWALP | not soluble
MGSDKIHHHHHHMSLEHFFRDELTYLRLQGREFAKAHPELTRFLSEQTTDPDVERLLEGFAFLTGSLRAKIEDEFPELTHGLLGMLWPNYLRPVPSMTIMQFSVHPGAIAQPAFVARGCELDSLPIDDVVCHFQTCHDAWIYPADIREIKVQSGNDLSTITLDIGLHGPLSLSDLQLDKLRFYLGGDTYTAYELYFWIASQLSHIELEVDGQRFRQEASVLKTVGFEREDALLPYPGNVYSGYRILQEYFCFPESFLFFQLAGAVWPDLPLTVTEFRLHFCFDRPLPAELKIRPDSFMFNCVPAINLFQHDSEPINLSGRQTDYPLKASYRNADSFEIFSVDKVEGWVEGNSGRSRGIPRTYQPFESFQHQIERAKGRLALYYRIRVREAINGNGFDHMLSFVRGDEQEVIDLDESISVTLTCTNRSRAAQLSVGAICVPTGNSPSFATFRNLVRPTRPLRPAMDGSLHWTLISNLSLNYVSLLRRDALVQILRTYDFPALHDKQAEQASRKRLAGIESIETTPIDRLVQGMPVRGLKSILSVRQSAFSSEGELYLFSTVLAHFFSLYASVNAFHLLEVVNIDNKERYRWPVQIGQHSMM | not soluble
TVPGATTTSSAATETMENVKKCKNFLSTLIKLASSGKQSTETAANVKELVQNLLDGKIEAEDFTSRLYRELNSSPQPYLVPFLKRSLPALRQLTPDSAAFIQQSQQQPPPPTSQ | soluble
MSLHSLQRKVLRTICPDQKGLIARITNICYKHELNIVQNNEFVDHRTGRFFMRTELEGIFNDSTLLADLDSALPEGSVRELNPAGRRRIVILVTKEAHCLGDLLMKANYGGLDVEIAAVIGNHDTLRSLVERFDIPFELVSHEGLSRNEHDQKMADAIDAYQPDYVVLAKYMRVLTPEFVARFPNKIINIHHSFLPAFIGARPYHQAYERGVKIIGATAHYVNDNLDEGPIIMQDVIHVDHTYTAEDMMRAGRDVEKNVLSRALYKVLAQRVFVYGNRTIILEGHHHHHH | soluble
MFSPDTNSEFYDDFYTKYNTNMAPTTSTFNAQPRLSLDSGLGLTNDSFYSTDLNETHLMDISAGNASTSFQSQPPPQLESSPPTKWARIRTPPNRKKKISHEGPNQEALPPGFNLFSPPSRKKIKTAFSSPPPKSMKTPDSLRKSIRISSPSPFKVTFSKTPLKLSNNENVTGIHIGRSGTYYNKQVTGSASKRCLLPSKPDGFTFLGSPGNSDVLDFPLQTTFEGFGDLDTPAKINAALEVNNDDSMDYYQYAGMIETSSSLATYTNSTGPLVENHARNLKSVPISRTASRNLMKISRKSVEEPVPEPQAVHVEPVIEKPTKISAKKEKEQKKSAAKEAALKEAKEKEMRIWKLAPFETPKKEVPLYSGRWLVISTGRTLAQQELFSDAKSFFKANPPPAPRAPQAPELASGPRRIPTIQRVTLFKHRYRSPRD | not soluble
MGSDKIHHHHHHHVETIKNTFLNPKSNKVLVVAHRGNWRSAPENSTAAIDSAIAMKVDIVEIDIQKTKDGQLILMHDNTLDRTTTGKGEIKNWTLADIKKLKLKDKDGKVTNYVVPTLEEALLTAKGKIMVNLDKAYDIFDDVYAILEKTETQNQVIMKGGQPIETVKREFGSYLDKVLYMPVIDLGNKEAEKIITDYLKELRPAAFEIIYSDPKNPLPPKIKQLLFKKSLIWYNTLWGSLAGNHDDNLALTDPEKSYGYLIEQLGARILQTDQPAYLLDYLRKKGWHN | not soluble
MKKPVYLTPEGYRRLQEELNHLKTVKRQEISADFEQALEEGDLRENAGYDEARRAMWQNEARIAQLEDLLSRAVIVENGSFDQVALGCQVELETETGERLSLAIVGSHEADIFSGKISDESPLGQALLGKKVGDVVEIRGKKGAQVYTILEIKPL | soluble
MCAHRPATAPDFLLSRSHGSIRTQGAVETFSDPGKAVEALRSGRVELVVGALAFRRDHACALTVPRSVIREEGPLEPHAYYRQGPGSIVNAQVEKLVPSLDKHHARVEAAINTIKSTSLKKVVLARAVDMTFSPAVDPRLIAARLIDLSRNRDGFIADLTPAGEDFAGAM | not soluble
MGSDKIHHHHHHACEEEGLGNEETPFAPYVLSLGINSNGTTTYYVVTAPELMSGTINAVAKGIEQNGYRDYEQAGQTVFSIGGLGLTSATGIVRDANGYLTERGDFVFNSSLNAFTQMDGQNMIGLELPANKESGDQMTLYTVNISDVSITSQVKAPVFPLNQLEWPSITGMCYSEGNVYVTYFPMNPSTFETLYTDTTFVAVYSYPDMQFKTLMKDTRTGPAGSWNAFNGIFKVESGDMYIMSNSAIANGFSQSTKNAAFLRIPKGETHFDDYYFDFETVSGGLKPAHIKYIGNGLVFAEVSTISPQTSADRWGDKSLKCCIIDLNNKTVRDIKEIPVHNGDGGRRFAALVDGGYVYRPVTASEGTYIYQVDPQAATAVRGAKVSTTFVGGFFRLD | not soluble
SHVETGPNGEQIRKHAGQKRTYKAISESYAFLPREAVTRFLMSCSECQKRMHLNPDGTDHKDNGKPPTLVTSMIDYNMPITMAYMKHMKLQLLNSQQDEDESSIESDEFDMSDSTRMSAVNSDLSSNLEERMQSPQNLHGQQDDDSAAESFNGNETLGHSSIASGGTHSREMGDSNSDGKTGLEQDEQPLNLSDSPLSAQLTSEYRIDDHNSNGKNKYKNLLISDLKMEREARENGSKSPAHSYSSYDSGKNESVDRGAEDLSLNRGDEDEDDHEDHDDSEKVNETDGVEAERLKAFNDESAPADKQCKPEATQATYSTSAVPGSQDVLYINGNGTYSYHSYRGLGGGLLNLNDASSSGPTDLSMKRQLATSSGSSSSSNSRPQLSPTEINAVRQLVAGYRESAAFLLRSADELENLILQQN | soluble
MSLRIEYNYRYYLTENEYKQYHIQLKGFIKKYVATKLADVGEVIHFAQAQQRQGRYVSLYLSYEAAKYFNHVMCTHSLAKDDIYAVAYSFEKAESINSTYEHQTSYVSKHHFSFVESSEVMMTNIKRVQQAIVEGETYQVNYTARLTDNIYYPISTLYERLTQFSNGNYTALLQTDEIQVASISPELFFQKGQFNNVDNVIISKPMKGTMPRGKTEAEDQQYYKTLQTSSKDRAENVMIVDLLRNDIGRISQSGSIKVYKLFFIEAYKTVFQMTSMVSGTLKTNTDLTQILTSLFPCGSITGAPKLNTMKYIKQFESSPRGIYCGAIGLLLPTEDDKMIFNIPIRTIEYKYGQAIYGVGAGITIDSKPKDEVNEFYAKTKILEMLEGHHHHHH | soluble
MLKIFNTLTRQKEEFKPIHAGEVGMYVCGITVYDLCHIGHGRTFVAFDVVARYLRFLGYKLKYVRNITDIDDKIIKRANENGESFVAMVDRMIAEMHKDFDALNILRPDMEPRATHHIAEIIELTEQLIAKGHAYVADNGDVMFDVPTDPTYGVLSRQDLDQLQAGARVDVVDDKRNPMDFVLWKMSKEGEPSWPSPWGAGRPGWHIECSAMNCKQLGNHFDIHGGGSDLMFPHHENEIAQSTCAHDGQYVNYWMHSGMVMVDREKMSKSLGNFFTVRDVLKYYDAETVRYFLMSGHYRSQLNYSEENLKQARAALERLYTALRGTDKTVAPAGGEAFEARFIEAMDDDFNTPEAYSVLFDMAREVNRLKAEDMAAANAMASHLRKLSAVLGLLEQEPEAFLQSGAQADDSEVAEIEALIQQRLDARKAKDWAAADAARDRLNEMGIVLEDGPQGTTWRRK | soluble
MYYADSSPALVGLIALNARLHGIRADVVDFMAASTPAGEQAISHVYLPFSVAGVPSTFLVSM | not soluble
MHQQLMVMIDRKRRRSFIMMRSMFSGVSGLQAHQTKMDVIGNNVANVNTVGFKSSRVTFQEVFSQTLKGASSPDPTTGRGGTNPMQVGLGLGVATIDTLMTRGSVQRTDNPTDLAIEGDGFFIVKGGSSDTFKFTRAGNFGIDRLGNLVTGSGLNVYGWQSYTKLPDGTYKFDTESQIEPINLYSDDVNKNKRMIAAKATTYAIFEGNLDASYSIYSSAASGTSSNNRFTMPVTVYDSLGNSYKINISFWKTDVTGGVTTWTWQVDSGNGVTASGATGTILFDDQGQVIESSAVTPSITIIPDSSVGSQNINVKLDFSRLTMYAADSSAKATNVDGYPAGSLVTFSIGSDGMIMGIYSNGQQQPLGLIALASFDNPAGLEKVGENMYIPTSNSGEFKKGVKAGTEGVGTLSPGTLEMSNVDLSKEFTEMIITQRGFQANSRIITTSDEMLQELVNLKR | not soluble
GGGGGGMVNLQRARTPIHRVGFARPPLHLAIPHPATTTPCAMSAESLVLALVLLALCGAVMLRWISQRHAHDSAVGDKALTHKGRLRLSQNASGSAAGRCGSDDGNDSDQGGVDDDNGGAVGRRRRGAGGVLRRRRPQERGGNARRGGSDGDENSYDGDDAGGIPETDANGVKLTRLQRKKLAKEREREERRQAQEAALEAQRQRMDVNELRDAEAALREEELKAAEEAALQQLRRDKKKAEDEEYAKWVSHIGVEERGELGDEERERQTRMQSFLLDRAAQVQARARRSAAGAKSSPSEEECIHVLILQTAARDLKVSVEELVSTIEQLSQVDKVHGVFDDRGKYVFIAPEQFPLLAQFIRLRGRVSVQEFTRECNRVVMQS | soluble
GSFLLPKLTSKKEVDQAIKSTAEKVLVLRFGRDEDPVCLQLDDILSKTSSDLSKMAAIYLVDVDQTAVYTQYFDISYIPSTVFFFNGQHMKVDYGSPDHTKFVGSFKTKQDFIDLIEVIYRGAMRGKLIVQSPIDPKNIPKYDLLYQDI | soluble
MGSDKIHHHHHHMKKRLGSQTARIDSKPRIVSAVSMVGPKEGRGPLKDYFDIILSDDMNGEESFEKAESNMLYTVITEVIKKSNLTENDIDYLFAGDLLNQITSSSFAARDAKIPFYGLYGACSTMTESLSIAAMIMDGGFADYTIAATSSHFSAAERQFRYPLEYGSQRKPDAQWTVTGAGAMLLARQGDFPYITFVTAGKVKDYGITSPDSMGEAMAPAAVDTIKQHFKDTGRTPQDYDVIATGDLGRVGKKITEDLLKKEYGYDMSNIYMDCGEKIFNCDEQDTNSGGSGCGCSAVVDCGYIYKNMLSGKIKKALLISTGALMSTTSNLQGESIPGIAHAVSIEFGGMKNE | not soluble
